Measured values from the supplement of paper PMC12042874.
± gives the uncertainty stated by the source.

Assay: amyloid nucleation score (Sup35N fusion, yeast selection) (log enrichment); library NNK1; higher = more nucleation; inactive = no reads after selection
Outline: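 The nucleation score is the DiMSum log enrichment of output over input reads, centred on the mode score of non-aggregating sequences. Only sequences with 100 or more input reads were scored, using Illumina sequencing of input and output plasmid inserts. Psi-negative yeast expressing Sup35N fused to peptides of 20 random codons were induced 24 hours with 100 μM copper sulfate and grown 7 days at 30°C on medium lacking adenine and uracil.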

Substance | amyloid nucleation score
GRSLSFLLIGKYWQYTTQAR | inactive
IILIDMVCPPCRPRFRSYSC | -0.153 ± 0.69
IRTPYIWLTCRGPYEVRRWD | -0.247 ± 0.69
DCYREVSYFKFQNTKGSGSW | 3.33 ± 0.14
HVFSQ | -0.756 ± 2.4
FFICKFL | -0.427 ± 1.9
CLIYYVYSRWIIPMYITGRR | -0.27 ± 0.81
RDMMMRRWVVSKSEL | 0.711 ± 0.72
KSSCRDLIVDVNTGE | 0.765 ± 0.38
FLENSTTSYNCYFNARWKCS | 0.389 ± 0.35
RDTVTSNSSVT | 4.36 ± 0.095
VANQNHLSCDIMSSARCERH | 0.244 ± 0.65
TICNEINQFKAK | 0.35 ± 0.59
LCFVRMRYLFESDCPRHRKH | 0.384 ± 0.65
HGGKCLSMRYRDCALWTFQG | 0.031 ± 1.2
GPRDFGDAWCYTSNNVKSCS | 0.216 ± 0.48
RGSVWATSCRIAKPIVFWGW | inactive
IAVPRRQPINLSN | 0.668 ± 0.56
ISYSLRGSVRR | -0.032 ± 0.41
ISLYVSNYRAYDKSPLGEDW | 0.398 ± 0.74
QCAYGWFRIIVITRFFCEDS | -0.701 ± 0.37
IHVSFKDYLTVSTIMMWTIV | -0.077 ± 0.66
WEWSTGFRCC | 0.566 ± 0.48
GFYGCYSYVVLGGRVEP | -1.02 ± 2.4
PFTNQPMSPARHLFI | -1.88 ± 2.4

Substance | amyloid nucleation score
NITFEVINQRCD | 3.38 ± 0.12
IVYTYRVNIVII | 7.528 ± 0.044
PTDMPGHVTMSRGSCLEWVL | 0.355 ± 0.36
LCAREFVDCEAILVRLWFVY | -1.18 ± 1.1
IGLMALLGLTRDR | 2.17 ± 0.12
QRCTIYRSSI | inactive
TRHCMRLWECKHEMRTAN | -0.647 ± 1.1
HHALHAKAERLTPPMPPCKM | 0.714 ± 0.84
LSGFKMFIGNYITVV | -0.779 ± 0.78
RIMGFRTFEHWIININYLLL | -0.094 ± 0.41
YQDAGVLGRLPHLFTNGSFT | 0.021 ± 0.93
TWARRFYATRVTTCLNQRVL | 0.416 ± 0.81
ERFVYALIEFCIETERLHTE | -0.459 ± 0.45
TVRGCRCLAFPWFNG | 0.5 ± 0.48
YERGNFCWTIILRFLEF | -1.22 ± 0.78
HSIERTWPVRRPKCESKLKF | -0.91 ± 1.3
KYPSKSSELSGYEDSRNFVG | 0.806 ± 0.62
APSYRATWRAVNCAILGPLY | -0.567 ± 0.61
SACQLFGVMVPEHRRALMVW | 0.018 ± 0.42
RNLQILQDYKPSSNQCGRKE | -0.885 ± 0.71
WRHATSEMCFEGMLKCKVVT | 0.903 ± 0.57
TAVDLWYGGVGGLALNGVVS | 0.594 ± 0.62
FVGGPPMIQYVVPV | 0.326 ± 0.42
TPANNVRISFIWFL | 3.54 ± 0.064
NSMLNDCHDKLIIGFSEGWS | 0.091 ± 0.47

Substance | amyloid nucleation score
VDRGCKYKQLMREVVSEHVI | 0.753 ± 0.63
TNISSTGFAIYWLCN | 7.16 ± 0.049
QRKPVCSGLTLFHMLNRVTK | -0.484 ± 0.65
NNLTVLIWVMPMDRI | 1.99 ± 0.39
IIGLVWSVL | 0.993 ± 0.58
LNNLCNGMGGL | -0.78 ± 0.53
ISRPSSSGRLHVVMTSSNAR | 0.421 ± 0.39
SIQLMNVFDQVVSQASIKHG | inactive
CYRLWHGCKMGIPVQYLYGS | -0.113 ± 0.36
SIRSVLFVSTVDDTPPYQGF | inactive
QYPLMK | 0.319 ± 0.32
HMSDNGLSSMKRVYVVYPTT | -0.049 ± 0.23
DSTFHMDYY | -0.121 ± 0.5
TFSTGFGGIISLACVRRQYL | 0.049 ± 0.88
FLQLLGGLRSYKTRVCMWCV | -2.21 ± 2.7
KLNGNINFCFNCGNSGF | 7.27 ± 0.046
TSDRVVPFGSISWKGCSRVR | -0.981 ± 0.85
NTVFVIDESFGVMGWLGLKQ | 0.294 ± 0.82
CNMHATETLNIRCVNSDAC | 0.046 ± 1.6
DDGPLWRMKEMCLVTVRGSE | 0.91 ± 0.29
QGLGALMVRSFSFYLFVW | -0.241 ± 1.4
SLHSDVRHRRVVYVVREIAY | -0.096 ± 1.1
LAYSNWALSCGIHIFRVTTS | 0.792 ± 0.27
FLINGISSLCGLVVGLKFMD | 0.755 ± 0.34
LCSNC | inactive

Substance | amyloid nucleation score
SIHVGVSRG | 0.806 ± 0.35
FVYLVHLLMNGRVIKLFRDM | -0.372 ± 0.27
SLLNTELQIKAQYDQMSHRR | 0.36 ± 0.44
GRFVEMRLEHYRLNSRENSL | -1.75 ± 2.7
FYYYSSCHYWYC | -0.13 ± 0.79
QMKAVLRLRINICCPQVRGT | 4.66 ± 0.1
GCVVI | 0.258 ± 0.26
WSKYVESVRVETVGQVFQLV | -0.009 ± 0.51
VDSSRRDVCDGDT | 0.104 ± 0.48
RWESKRRRRGRYGFWSVSVR | 0.129 ± 0.35
RYGRYSCSIIEGLCLMSSKW | 0.676 ± 0.95
VYFYVQPNGFMEIGASMIAA | -0.431 ± 1.4
WESDIFFMIGLVQRRQLTGP | 2.91 ± 0.17
RSFPSTFLLVLLQDSRC | 2.17 ± 0.24
GFLIGRSD | 0.022 ± 0.43
QFVSLKFRVGLATS | 0.045 ± 0.95
VRSDAVKEARISFCLRSKRF | 0.423 ± 1.4
VWGINILMSFPIV | 5.674 ± 0.053
FGLRYSMCHHGRGHLKWLYT | 1.35 ± 0.65
MTEQAQ | 0.286 ± 1.4
ADAGGSQVWAYQAQIICPKW | -0.63 ± 1.3
HNYSDFFNESWHNGLIYSY | -0.571 ± 1
SFNKDRKIYTRPELRFMMFL | -0.707 ± 1.7
LLVLSLINFFFKKRAFCPIT | 2.11 ± 0.6
YSVVRCRVANC | 0.263 ± 0.61

Substance | amyloid nucleation score
YYISLFTEDMSVRRVNQTCF | -2.03 ± 0.96
IVIFPFFLVISDLYVVVSLG | -0.077 ± 0.53
LCNLGMLRLSGMENRINRVG | 1.29 ± 0.6
WLYMRGPKVVRSCREITARA | 0.413 ± 1.4
SWLCHRTSVLVPVVSISRKL | 1.15 ± 0.7
SFDKARRARGRSLAWML | 0.072 ± 0.54
VLFYQF | -0.382 ± 0.69
RIYILIDYSVYFSSIELLHF | -1.67 ± 1.1
GAICQGLINDVVGRGDGMMR | 1.19 ± 0.97
NTKWLMGSLSIIVCMPKSYW | 6.294 ± 0.045
CLIVKRIFFYLNYHKKVELL | -0.573 ± 1.4
DAIVDS | 0.084 ± 0.54
YFSYSLQKTAARRGVVMFTQ | -0.378 ± 1.4
FMYTDPDSVPQGSDTTSLAL | -0.129 ± 0.46
FGLIKWWDGVWWLSDLRRLH | 0.979 ± 0.65
AYSSARHFFTLTFKEIRFGR | 0.141 ± 1.4
SDQSPFLIGVPWFVIYNRGG | 1.69 ± 0.11
CMWSRRWGTLLASILVLSYG | 0.081 ± 0.34
LWNGIFELAYLTGVYEFRYG | 2.07 ± 0.26
FLRPTGHSGCQFGAMSSKKG | 0.464 ± 1.2
ISINLRLVRHRGWGNISCWR | 2.2 ± 0.33
GILFWSGL | 1.07 ± 0.66
KWCISKSFFVYPTMMR | 0.437 ± 0.44
AIRFDLVTFAAIEGIIYKGR | 0.136 ± 1
SHSTFAVQMRA | 8.273 ± 0.047

Substance | amyloid nucleation score
PPGIRAYM | -0.036 ± 0.35
LSFAKGSVFITGDCISGTVD | -1.49 ± 1.7
NMFNDVGDWTFNKGSFTGTV | -0.482 ± 0.41
WMSLIGKNMRMIMVIKKWAL | inactive
HMRGLG | 6.77 ± 0.083
VSVTVLGRWR | 3.55 ± 0.19
FWVFAITFTAERKLQADDLF | 1.84 ± 0.15
ISQVYGDNTDFVLLVSSDNV | 0.544 ± 0.33
TWMNASCKSCTYAARFSDQK | 1.51 ± 0.56
TAFLGTSGG | 0.448 ± 0.42
QSAYRSR | inactive
AYIDKMCTPYNKGRLLMHWY | 1.97 ± 0.48
LSSTSV | 0.425 ± 0.44
LLYPHSTSRGLIMTFYPKSG | 0.54 ± 0.6
DACGNWCYCWRALDGQDGSI | 0.099 ± 0.31
HVYCLRWRYC | -0.318 ± 0.35
LFQSA | 0.854 ± 0.17
SMAIVDRWLMQGSSQPAGS | 0.702 ± 0.53
LGIYNGEASRWYRESTPAQ | -0.443 ± 0.92
SGNTGPFRCARAADNSNFKG | -0.922 ± 0.67
LWPEPVSRSIHSRSH | 0.976 ± 0.55
MICKMNYQVRIPINFSYCLN | 2.43 ± 0.15
DLLFMLRGAWAKSFMMGSVG | 0.059 ± 0.43
RLFCGSWDNFREGE | -0.063 ± 0.58
NVSNLGSLMSTYGESCLVNF | inactive

Substance | amyloid nucleation score
EGRTWRGSRRGLHLDSPRMC | 0.438 ± 0.95
VRSGDCYRSNSKSVFVMAIR | 0.617 ± 0.49
LGVQFSGRLSVPVYFMWFTL | 0.814 ± 0.61
MRITILYYLGKQNRSFWWFC | 0.108 ± 0.35
NWYYRWELFVACFYLYSGWE | inactive
SMGLYRDLRLKCFC | 1.02 ± 0.47
VLPCSGQA | 0.79 ± 0.26
LKRFMDTDYYFMMKCCTSN | 0.843 ± 0.55
LSPWSKTSIYCNLLPCIVSR | 0.571 ± 0.3
KIGRGRSNAVLLLAEDVYVG | -0.57 ± 1.2
SMSPTDICYWCLYHSAYIRD | 1.55 ± 0.3
CWCSANALMCRGKLSAWNRH | inactive
IHKDFSLMHILRIHLVGVFS | inactive
PMLGGRESEEPRVGWKVGWV | 0.377 ± 0.27
HVYVWKRTVPGIGRDQHNSR | 1.81 ± 0.6
YTRSVL | 0.2 ± 0.23
SYRHSSTSCKFGYVYRFTCL | 1.19 ± 0.41
HDGLLVFAFHY | -0.378 ± 1.4
RRATLSHAPGGPMGLEWSRW | 0.444 ± 1.2
NYFTVCLKGVRSDPPSVAKG | -0.596 ± 0.4
